Experimental data: publication PMC4003280, “Structural basis for the Nanos-mediated recruitment of the CCR4–NOT complex and translational repression” (Genes & Development, 2014)

Key:
MBP-CNOT1 SHD = molecular target: T1, MBP-CNOT1 SHD (human, UniProt A5YKK6 1833-2361); assay: pull-down; GST pull-down in vitro with recombinant proteins expressed in E. coli; GST-NIM as bait; settings: both partners purified
T1 construct: also called isolated CNOT1 SHD; NOT1 superfamily homology domain; source: E. coli BL21 (DE3) Star, purified (amylose resin, HiTrapQ, Superdex 200); not shown: MBP, N-terminal, kept
T1 sequence (A5YKK6 1833-2361): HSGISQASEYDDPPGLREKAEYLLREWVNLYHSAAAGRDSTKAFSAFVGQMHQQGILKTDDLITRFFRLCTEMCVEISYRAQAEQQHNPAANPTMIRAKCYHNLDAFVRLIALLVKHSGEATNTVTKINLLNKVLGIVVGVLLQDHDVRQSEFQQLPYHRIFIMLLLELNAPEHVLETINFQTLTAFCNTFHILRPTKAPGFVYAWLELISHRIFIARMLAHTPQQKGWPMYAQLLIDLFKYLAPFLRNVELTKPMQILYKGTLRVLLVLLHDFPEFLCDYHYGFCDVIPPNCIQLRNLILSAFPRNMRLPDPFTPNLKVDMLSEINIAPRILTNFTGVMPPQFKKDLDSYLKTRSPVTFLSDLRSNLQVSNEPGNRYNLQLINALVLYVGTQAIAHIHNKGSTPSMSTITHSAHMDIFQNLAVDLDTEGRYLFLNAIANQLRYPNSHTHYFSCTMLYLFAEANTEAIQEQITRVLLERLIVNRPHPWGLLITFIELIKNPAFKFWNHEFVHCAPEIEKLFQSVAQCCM

[1] = molecular target: T2, CNOT1 SHD (residues 1833–2361), MBP tag removed (human, UniProt A5YKK6 1833-2361); assay: crystal structure; CNOT1 SHD with synthetic Nanos1 NIM peptide; vapor diffusion at 22°C, 0.7-0.8 M succinic acid pH 7.0; refined at 2.8 Å; settings: both partners purified
T2 construct: source: E. coli BL21 (DE3) Star, purified (amylose resin, HiTrapQ, HRV3C digestion, size exclusion chromatography); not shown: MBP, N-terminal, cleaved
T2 sequence (A5YKK6 1833-2361): as above

B1: GST-Nanos2 NIM (domain or fragment, human, UniProt P60321 6-22, looked up)
chain: FDMWKDYFNLSQVVWAL
notes: Nanos2, human, NIM, residues 6-22; also called conserved motif of Nanos2 fused to glutathione S-transferase; GST-tagged Nanos2 NIM; source: E. coli BL21 (DE3) Star, purified (described in the Supplemental Material)
B1: binds (MBP-CNOT1 SHD).

B2: GST-Nanos1 NIM (domain or fragment, human, UniProt Q8WY41 40-56, looked up)
chain: FSSWNDYLGLATLITKA
notes: Nanos1, human, NIM, residues 40-56; also called conserved motif of Nanos1 fused to glutathione S-transferase; GST-tagged Nanos1 NIM; source: E. coli BL21 (DE3) Star, purified (described in the Supplemental Material)
B2: binds (MBP-CNOT1 SHD).

B3: Nanos1 NIM peptide (residues 40–56) (peptide, UniProt Q8WY41 40-56, looked up)
peptide: FSSWNDYLGLATLITKA
notes: Nanos1, H. sapiens, NIM, residues 40–56; also called NIM peptide of Nanos1; Nanos1 peptide; source: synthetic peptide (EMC Microcollections)
B3: binds [1].

B4: GST-Nanos3 NIM (domain or fragment, human, UniProt P60323 4-20, looked up)
chain: FDLWTDYLGLAHLVRAL
notes: Nanos3, human, NIM, residues 4-20; also called conserved motif of Nanos3 fused to glutathione S-transferase; GST-tagged Nanos3 NIM; source: E. coli BL21 (DE3) Star, purified (described in the Supplemental Material)
B4: binds (MBP-CNOT1 SHD).
